Results on two molecules are retold here after paper PMC3357048 (Nature structural & molecular biology, 2011).

In series [1] the target is sFcεRIα W87D (immobilised for SPR) (human) (UniProt P12319). Kind of series: SPR.
The series “crystal structure” deals with the molecule itself. Kind of series: crystal structure.

Regarding “Fcε3-4 (sub-fragment of IgE-Fc lacking the Cε2 domains) (from UniProt P01854 211-427) (domain or fragment)”, the dH in series [1] was -63.6 kJ/mol.

B1: human IgE-Fc (dimer of Cε2-Cε3-Cε4 domains) (domain or fragment)
chain: CSRDFTPPTVKILQSSCDGGGHFPPTIQLLCLVSGYTPGTINITWLEDGQVMDVDLSTASTTQEGELASTQSELTLSQKHWLSDRTYTCQVTYQGHTFEDSTKKCADSNPRGVSAYLSRPSPFDLFIRKSPTITCLVVDLAPSKGTVNLTWSRASGKPVNHSTRKEEKQRNGTLTVTSTLPVGTRDWIEGETYQCRVTHPHLPRALMRSTTKTSGPRAAPEVYAFATPEWPGSRDKRTLACLIQNFMPEDISVQWLHNEVQLPDARHSTTQPRKTKGSGFFVFSRLEVTRAEWEQKDEFICRAVHEAASPSQTVQRAVSVNPGL
modifications: N-linked high-mannose carbohydrate at Asn394
The term stoichiometry N denotes the number of molecules, sites or subunits per partner or assembly. B1: the “stoichiometry N” value in “crystal structure” is 2.
